Reference: US7977317B2, “Compositions and methods for modulating blood-brain barrier transport” (Raptor Pharmaceutical Inc., priority 2001, dated 2011)

B1: p97: recombinant human melanotransferrin (p97), provided by Synapse Technologies (protein, UniProt P08582 20-709, looked up)
Melanotransferrin: GMEVRWCATSDPEQHKCGNMSEAFREAGIQPSLLCVRGTSADHCVQLIAAQEADAITLDGGAIYEAGKEHGLKPVVGEVYDQEVGTSYYAVAVVRRSSHVTIDTLKGVKSCHTGINRTVGWNVPVGYLVESGRLSVMGCDVLKAVSDYFGGSCVPGAGETSYSESLCRLCRGDSSGEGVCDKSPLERYYDYSGAFRCLAEGAGDVAFVKHSTVLENTDGKTLPSWGQALLSQDFELLCRDGSRADVTEWRQCHLARVPAHAVVVRADTDGGLIFRLLNEGQRLFSHEGSSFQMFSSEAYGQKDLLFKDSTSELVPIATQTYEAWLGHEYLHAMKGLLCDPNRLPPYLRWCVLSTPEIQKCGDMAVAFRRQRLKPEIQCVSAKSPQHCMERIQAEQVDAVTLSGEDIYTAGKTYGLVPAAGEHYAPEDSSNSYYVVAVVRRDSSHAFTLDELRGKRSCHAGFGSPAGWDVPVGALIQRGFIRPKDCDVLTAVSEFFNASCVPVNNPKNYPSSLCALCVGDEQGRNKCVGNSQERYYGYRGAFRCLVENAGDVAFVRHTTVFDNTNGHNSEPWAAELRSEDYELLCPNGARAEVSQFAACNLAQIPPHAVMVRPDTNIFTVYGLLDKAQDLFGDDHNKNGFKMFDSSNYHGQDLLFKDATVRAVPVGEKTTYRGWLGLDYVAALEGMSSQQC
B2: lactoferrin: lactoferrin (Lf), LRP ligand used as competitor (protein, UniProt P02788 20-710, looked up)
Lactotransferrin: GRRRSVQWCAVSQPEATKCFQWQRNMRKVRGPPVSCIKRDSPIQCIQAIAENRADAVTLDGGFIYEAGLAPYKLRPVAAEVYGTERQPRTHYYAVAVVKKGGSFQLNELQGLKSCHTGLRRTAGWNVPIGTLRPFLNWTGPPEPIEAAVARFFSASCVPGADKGQFPNLCRLCAGTGENKCAFSSQEPYFSYSGAFKCLRDGAGDVAFIRESTVFEDLSDEAERDEYELLCPDNTRKPVDKFKDCHLARVPSHAVVARSVNGKEDAIWNLLRQAQEKFGKDKSPKFQLFGSPSGQKDLLFKDSAIGFSRVPPRIDSGLYLGSGYFTAIQNLRKSEEEVAARRARVVWCAVGEQELRKCNQWSGLSEGSVTCSSASTTEDCIALVLKGEADAMSLDGGYVYTAGKCGLVPVLAENYKSQQSSDPDPNCVDRPVEGYLAVAVVRRSDTSLTWNSVKGKKSCHTAVDRTAGWNIPMGLLFNQTGSCKFDEYFSQSCAPGSDPRSNLCALCIGDEQGENKCVPNSNERYYGYTGAFRCLAENAGDVAFVKDVTVLQNTDGNNNEAWAKDLKLADFALLCLDGKRKPVTEARSCHLAMAPNHAVVSRMDKVERLKQVLLHQQAKFGRNGSDCPDKFCLFQSETKNLLFNDNTECLARLHGKTTYEKYLGPQYVAGITNLKKCSTSPLLEACEFLRK

Assays:
[1] = test system: LRP/LRP1B; test: Ligand binding and cross-linking, LRP/LRP1B immunodetection in U-87 cells; set-up: species or system human; conditions: 4° C., cross-linked, non-reducing SDS-PAGE (FIG. 29)
Experimental: FIG. 29. […] U-87 cells were grown in monolayer in six-multiwell microplates at 37° C. under 5% CO2. The cell monolayer were incubated at 4° C. with p97 or RAP in Ringer/Hepes solution. After incubation, cell monolayer was washed 3 times with cold-Ringer/Hepes solution and proteins were cross-linked with 1 mM DSS. After, cells were lysed and equal quantities of protein (25 μg) were subjected to SDS-PAGE under non-reducing conditions and electroblotted onto PVDF membranes. […] (n=2).
Ligand-binding. Briefly, cells were incubated with [^125I]-p97 in Ringer/Hepes solution, in presence or in absence of 5 μM cold-P97 for 1 h at 4° C. After incubation, the cell monolayer was washed three times with cold Ringer/Hepes solution. After the ligand binding at 4° C., cell monolayer was washed three times with cold Ringer/Hepes solution and was incubated with DSS (Disuccinimidyl suberate) or Lomant's reagent DSP (Dithiobis(succinimidyl propionate)) from Pierce. After the cross-link, cells were lysed and proteins were separated by SDS-PAGE electrophoresis. Gels were fixed, dryed and exposed to Kodak films at −80° C. for about 3 weeks before developing. The cross-link was performed exactly as the manufacturer's protocol.

[2] = test system: Megalin; test: RT-PCR after p97 treatment in U-87 cells: Megalin; type: cell-based, human; conditions: 72 hours, RT-PCR (FIG. 35)
Experimental: (§1) FIG. 35. Effect of p97 and RAP treatments in U-87 cells (RT-PCR). Cells (2×10^5) were plated onto six-multiwell microplates and grown at 37° C. under 5% CO2 with optimal culture medium supplemented with serum for 4 days. Treatment was performed in serum free medium for 72 hours. RNA isolation and RT-PCR were performed as described in the Examples. The amplified PCR products were electrophoresed on a 2% agarose gel and visualized under ultraviolet light. (n=2 for p97), (n=1 for RAP)
FIG. 38. Effect of p97 and RAP treatments in U-87 cells on expression of cubulin (A), P97 (B) and Megalin (C). The amplified PCR products were electrophoresed on a 2% agarose gel and visualized under ultraviolet light. (n=1). Quantification was by densitometry of p97 and RAP treatments on the RNA levels of LRP1B, LRP, LDL-R, cubilin, endogenous p97 and megalin. Results are expressed as ratios of RNA levels between control and treated U-87 cells.
RNA extraction. Cells in six-wells plate or in 75 cm^2 plastic tissue culture flasks were grown at 37° C. under 5% CO2 with optimal culture medium to 80-90% confluence. Total cellular RNA was preserved in Trizol (Gibco BRL, Burlington, ON). The solution are frozen at −80° C. until extraction. The solution was defroze and mixed with 5:1 chloroform for 3 minutes at room temperature. The suspension was centrifugated at 12000 g at 4° C. […]

[3] = test system: endogenous melanotransferrin; test: RT-PCR after p97 treatment in U-87 cells: endogenous melanotransferrin; type: cell-based, human; conditions: RT-PCR (FIG. 36)
Experimental: as §1, with “36.” for “35.”, “(RT-PCR) on endogenous melanotransferrin.” for “(RT-PCR).”, “(2×105)” for “(2×10^5)”, “Treatment with p97 and RAP” for “Treatment”, “(n=1).” for “(n=2 for p97), (n=1 for RAP)”
RNA extraction. Cells in six-wells plate or in 75 cm^2 plastic tissue culture flasks were grown at 37° C. under 5% CO2 with optimal culture medium to 80-90% confluence. Total cellular RNA was preserved in Trizol (Gibco BRL, Burlington, ON). The solution are frozen at −80° C. until extraction. The solution was defroze and mixed with 5:1 chloroform for 3 minutes at room temperature. The suspension was centrifugated at 12000 g at 4° C. The clear supernatant was collected then mixed with 1:1 of isopropanol for 15 minutes at room temperature. The mix was centrifugated at 12000×g for 10 min at 4° C. The pellets was washed with 70% ethanol and dried before resuspended in RNase Free H2O.
RT-PCR. RT-PCR was performed for members of the LDL-R family: LRP, LRP1B, megalin, LDL, VLDL, LRP8, LR11, RAP, LR3, cubulin and P97. […]

[4] = test system: U-87 cells; test: Morphology of U-87 cells after p97 treatment; type: cell-based, human; conditions: FIG. 33
[5] = test system: LRP1B; test: RT-PCR after p97 treatment in MG1391 fibroblast cells: LRP1B; type: cell-based; conditions: fibroblast cell line MG1391, RT-PCR (FIGS. 40 and 41)
Experimental: FIG. 39 show the expression of members of the LDL receptor family in MG1391. RT-PCR. RT-PCR was performed for members of the LDL-R family: LRP, LRP1B, megalin, LDL, VLDL, LRP8, LR11, LRP5 and cubulin. DNA (cDNA) synthesis was performed with 1 μg of total RNA using a cDNA one step synthesis kit (Invitrogen, USA) following the manufacturer's protocol. (1× of reaction mix, RNA 1 μg, 0.2 μM of both primers, 1 μl of RT/Platinum Tag mix). The cDNA generated was amplified using primers produced with MacVector 7.0 (Oxford molecular Ltd, Oxford, UK). All the subsequent assays were then performed under conditions that produced amplifications of cDNA within a linear range. RT inverse-transcription was performed at 50° C. for 30 min. PCR amplification for 35 or 40 cycles for all was performed as follows: denaturation at 94° C. for 30 s, annealing at 60° C. for 30 s and extension at 72° C. for 1 min. Finalisation stage was performed at 72° C. for 5 min. Tubes containing all the ingredients except templates were included in all runs and served as negative controls. The amplified PCR products were electrophoresed on a 1% agarose gel in TAE (40 mM Tris, […], 1 mM EDTA, […] Ethidum bromide) and were visualized under ultraviolet light followed by densitrometric analysis.

[6] = target: LRP (Homo sapiens, UniProt Q07954); conditions: Tables 1-3; cited from earlier work
Sequence of LRP (Q07954 20-4544): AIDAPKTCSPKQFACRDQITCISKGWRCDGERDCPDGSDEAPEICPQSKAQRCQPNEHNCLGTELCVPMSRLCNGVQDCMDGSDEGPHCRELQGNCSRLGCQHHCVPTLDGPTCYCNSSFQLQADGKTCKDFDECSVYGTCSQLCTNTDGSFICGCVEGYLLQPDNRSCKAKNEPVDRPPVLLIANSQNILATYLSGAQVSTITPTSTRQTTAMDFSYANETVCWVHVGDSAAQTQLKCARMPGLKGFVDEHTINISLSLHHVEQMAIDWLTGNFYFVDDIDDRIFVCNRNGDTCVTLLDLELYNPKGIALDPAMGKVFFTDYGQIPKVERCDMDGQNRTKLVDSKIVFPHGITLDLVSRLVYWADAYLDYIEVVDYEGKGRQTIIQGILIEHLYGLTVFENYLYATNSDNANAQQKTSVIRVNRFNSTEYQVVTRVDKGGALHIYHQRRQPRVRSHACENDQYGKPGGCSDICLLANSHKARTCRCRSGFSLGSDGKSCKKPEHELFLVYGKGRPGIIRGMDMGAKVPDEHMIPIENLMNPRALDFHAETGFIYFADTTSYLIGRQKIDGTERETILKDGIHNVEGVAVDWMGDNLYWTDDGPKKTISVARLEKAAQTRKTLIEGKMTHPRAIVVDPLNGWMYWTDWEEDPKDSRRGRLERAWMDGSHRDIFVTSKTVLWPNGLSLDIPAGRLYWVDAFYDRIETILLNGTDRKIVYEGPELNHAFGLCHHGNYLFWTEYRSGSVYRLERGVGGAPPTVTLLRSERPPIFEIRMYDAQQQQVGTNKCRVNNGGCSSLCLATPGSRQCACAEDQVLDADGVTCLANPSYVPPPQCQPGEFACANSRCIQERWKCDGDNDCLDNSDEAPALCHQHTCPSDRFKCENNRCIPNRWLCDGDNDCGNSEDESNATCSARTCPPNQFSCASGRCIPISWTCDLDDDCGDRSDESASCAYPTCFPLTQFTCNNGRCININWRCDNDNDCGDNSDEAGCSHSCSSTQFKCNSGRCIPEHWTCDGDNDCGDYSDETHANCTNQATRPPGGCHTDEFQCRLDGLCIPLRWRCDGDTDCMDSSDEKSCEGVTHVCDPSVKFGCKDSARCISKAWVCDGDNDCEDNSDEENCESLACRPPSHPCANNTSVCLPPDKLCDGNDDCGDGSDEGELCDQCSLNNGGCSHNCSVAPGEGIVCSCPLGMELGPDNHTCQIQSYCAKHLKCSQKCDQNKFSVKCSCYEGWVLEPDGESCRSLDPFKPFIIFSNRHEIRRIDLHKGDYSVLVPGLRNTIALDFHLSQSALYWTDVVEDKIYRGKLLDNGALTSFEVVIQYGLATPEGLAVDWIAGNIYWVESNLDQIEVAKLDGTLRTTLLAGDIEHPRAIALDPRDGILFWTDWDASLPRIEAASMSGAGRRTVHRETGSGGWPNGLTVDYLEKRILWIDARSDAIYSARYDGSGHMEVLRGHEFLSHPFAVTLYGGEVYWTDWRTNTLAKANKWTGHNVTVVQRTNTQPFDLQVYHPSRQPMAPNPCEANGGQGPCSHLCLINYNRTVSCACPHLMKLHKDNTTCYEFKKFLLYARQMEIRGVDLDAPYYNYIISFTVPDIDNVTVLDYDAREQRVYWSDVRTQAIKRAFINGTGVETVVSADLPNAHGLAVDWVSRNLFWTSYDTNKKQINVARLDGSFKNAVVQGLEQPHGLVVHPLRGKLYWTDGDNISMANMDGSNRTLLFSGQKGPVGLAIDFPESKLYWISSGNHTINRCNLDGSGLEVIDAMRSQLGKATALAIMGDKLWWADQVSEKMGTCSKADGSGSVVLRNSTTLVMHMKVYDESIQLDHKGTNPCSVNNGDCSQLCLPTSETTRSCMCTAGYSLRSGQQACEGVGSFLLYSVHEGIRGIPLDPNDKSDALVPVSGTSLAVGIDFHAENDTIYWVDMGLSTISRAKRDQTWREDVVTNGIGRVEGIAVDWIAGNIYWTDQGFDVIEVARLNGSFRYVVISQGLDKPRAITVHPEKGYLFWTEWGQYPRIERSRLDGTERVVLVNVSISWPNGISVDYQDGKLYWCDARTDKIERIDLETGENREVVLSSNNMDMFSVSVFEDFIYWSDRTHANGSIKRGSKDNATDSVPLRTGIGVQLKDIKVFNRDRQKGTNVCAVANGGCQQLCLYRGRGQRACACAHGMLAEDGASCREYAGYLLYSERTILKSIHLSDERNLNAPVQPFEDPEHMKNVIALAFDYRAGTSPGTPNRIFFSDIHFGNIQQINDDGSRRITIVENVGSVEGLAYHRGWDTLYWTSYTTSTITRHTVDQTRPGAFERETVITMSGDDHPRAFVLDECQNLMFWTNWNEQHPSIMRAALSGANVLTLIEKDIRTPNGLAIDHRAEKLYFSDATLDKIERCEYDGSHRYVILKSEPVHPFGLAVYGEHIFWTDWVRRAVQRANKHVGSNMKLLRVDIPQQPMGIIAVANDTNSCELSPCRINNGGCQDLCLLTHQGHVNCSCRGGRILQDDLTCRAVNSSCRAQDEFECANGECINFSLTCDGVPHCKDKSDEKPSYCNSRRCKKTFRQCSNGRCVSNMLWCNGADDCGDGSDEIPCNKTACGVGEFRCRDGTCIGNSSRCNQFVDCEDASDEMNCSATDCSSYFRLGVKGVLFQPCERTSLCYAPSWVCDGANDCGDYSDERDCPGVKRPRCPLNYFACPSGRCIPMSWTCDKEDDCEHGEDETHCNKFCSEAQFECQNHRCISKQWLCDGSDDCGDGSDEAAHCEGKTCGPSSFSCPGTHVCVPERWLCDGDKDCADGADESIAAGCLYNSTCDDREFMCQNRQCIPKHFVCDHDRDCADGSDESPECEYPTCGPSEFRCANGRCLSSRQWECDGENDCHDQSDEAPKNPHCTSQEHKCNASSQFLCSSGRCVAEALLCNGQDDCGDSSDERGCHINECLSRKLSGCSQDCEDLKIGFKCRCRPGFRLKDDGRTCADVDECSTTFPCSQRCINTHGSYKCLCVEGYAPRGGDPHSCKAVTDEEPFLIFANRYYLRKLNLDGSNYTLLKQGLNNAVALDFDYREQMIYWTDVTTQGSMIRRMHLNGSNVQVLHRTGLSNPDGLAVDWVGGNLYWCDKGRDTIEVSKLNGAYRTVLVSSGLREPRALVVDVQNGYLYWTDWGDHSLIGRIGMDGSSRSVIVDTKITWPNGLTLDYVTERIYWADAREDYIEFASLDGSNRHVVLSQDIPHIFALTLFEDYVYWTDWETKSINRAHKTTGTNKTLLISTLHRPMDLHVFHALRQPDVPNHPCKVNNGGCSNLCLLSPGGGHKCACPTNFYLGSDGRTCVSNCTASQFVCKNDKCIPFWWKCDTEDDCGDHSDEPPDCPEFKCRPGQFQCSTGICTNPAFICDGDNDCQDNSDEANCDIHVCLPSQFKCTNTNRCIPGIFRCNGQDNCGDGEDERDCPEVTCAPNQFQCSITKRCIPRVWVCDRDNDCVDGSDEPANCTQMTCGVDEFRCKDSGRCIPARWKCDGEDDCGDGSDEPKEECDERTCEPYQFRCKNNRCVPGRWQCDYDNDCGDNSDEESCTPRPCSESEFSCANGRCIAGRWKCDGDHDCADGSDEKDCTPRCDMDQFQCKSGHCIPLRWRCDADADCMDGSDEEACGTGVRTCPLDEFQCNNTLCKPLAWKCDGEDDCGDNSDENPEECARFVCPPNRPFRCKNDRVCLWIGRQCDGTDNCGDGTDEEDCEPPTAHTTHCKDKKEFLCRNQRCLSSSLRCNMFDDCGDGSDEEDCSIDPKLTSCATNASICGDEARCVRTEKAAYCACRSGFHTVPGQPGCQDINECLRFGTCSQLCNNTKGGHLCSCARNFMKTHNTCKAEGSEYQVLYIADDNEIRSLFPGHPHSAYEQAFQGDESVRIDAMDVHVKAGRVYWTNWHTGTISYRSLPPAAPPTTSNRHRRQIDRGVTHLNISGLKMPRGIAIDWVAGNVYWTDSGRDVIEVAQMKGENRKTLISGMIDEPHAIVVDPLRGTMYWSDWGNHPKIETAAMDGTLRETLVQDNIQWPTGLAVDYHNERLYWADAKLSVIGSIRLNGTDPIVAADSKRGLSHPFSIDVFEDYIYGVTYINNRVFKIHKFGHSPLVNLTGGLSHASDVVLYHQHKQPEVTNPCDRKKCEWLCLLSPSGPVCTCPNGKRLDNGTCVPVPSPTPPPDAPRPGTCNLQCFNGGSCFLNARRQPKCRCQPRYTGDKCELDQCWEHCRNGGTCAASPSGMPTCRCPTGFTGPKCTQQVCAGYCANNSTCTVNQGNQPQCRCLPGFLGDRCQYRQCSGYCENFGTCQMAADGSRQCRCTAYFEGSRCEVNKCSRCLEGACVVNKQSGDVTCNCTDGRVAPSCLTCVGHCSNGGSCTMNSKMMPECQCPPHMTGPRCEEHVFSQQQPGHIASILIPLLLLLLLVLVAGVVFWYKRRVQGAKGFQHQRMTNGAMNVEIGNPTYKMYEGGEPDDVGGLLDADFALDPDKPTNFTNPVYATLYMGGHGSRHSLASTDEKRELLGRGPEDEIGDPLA

Molecule | Association with LRP/LRP1B [1] | Expression of the Megalin receptor [2] | Expression of endogenous p97 [3] | Effect on the morphology of U-87 cells [4] | Expression of LRP1B in MG1391 cells [5] | Binding to LRP [6]
B1 | high molecular weight dissociable complex | not | appears to induce its own expression | no discernable effect on the morphology | particularly induces the expression | –
B2 | – | – | – | – | – | Yes
